Laboratory results: patent publication US20050182242A1, “Global analysis of protein activities using proteome chips” (priority 2001, published 2005)

B1: APS2: yeast GST-HisX6 fusion protein on proteome chip (protein, UniProt Q00381 1-147, looked up)
AP-2 complex subunit sigma: MAVQFILCFNKQGVVRLVRWFDVHSSDPQRSQDAIAQIYRLISSRDHKHQSNFVEFSDSTKLIYRRYAGLYFVMGVDLLDDEPIYLCHIHLFVEVLDAFFGNVCELDIVFNFYKVYMIMDEMFIGGEIQEISKDMLLERLSILDRLD
modifications: GST-HisX6 tag
notes: yeast GST-HisX6 fusion protein on proteome chip
B2: TAT2: yeast GST-HisX6 fusion protein on proteome chip (protein, UniProt P38967 1-592, looked up)
Tryptophan permease: MTEDFISSVKRSNEELKERKSNFGFVEYKSKQLTSSSSHNSNSSHHDDDNQHGKRNIFQRCVDSFKSPLDGSFDTSNLKRTLKPRHLIMIAIGGSIGTGLFVGSGKAIAEGGPLGVVIGWAIAGSQIIGTIHGLGEITVRFPVVGAFANYGTRFLDPSISFVVSTIYVLQWFFVLPLEIIAAAMTVQYWNSSIDPVIWVAIFYAVIVSINLFGVRGFGEAEFAFSTIKAITVCGFIILCVVLICGGGPDHEFIGAKYWHDPGCLANGFPGVLSVLVVASYSLGGIEMTCLASGETDPKGLPSAIKQVFWRILFFFLISLTLVGFLVPYTNQNLLGGSSVDNSPFVIAIKLHHIKALPSIVNAVILISVLSVGNSCIFASSRTLCSMAHQGLIPWWFGYIDRAGRPLVGIMANSLFGLLAFLVKSGSMSEVFNWLMAIAGLATCIVWLSINLSHIRFRLAMKAQGKSLDELEFVSAVGIWGSAYSALINCLILIAQFYCSLWPIGGWTSGKERAKIFFQNYLCALIMLFIFIVHKIYYKCQTGKWWGVKALKDIDLETDRKDIDIEIVKQEIAEKKMYLDSRPWYVRQFHFWC
modifications: GST-His6 tag
notes: as for B1
B3: VTC4: yeast GST-HisX6 fusion protein on proteome chip (protein, UniProt P47075 1-721, looked up)
Vacuolar transporter …: MKFGEHLSKSLIRQYSYYYISYDDLKTELEDNLSKNNGQWTQELETDFLESLEIELDKVYTFCKVKHSEVFRRVKEVQEQVQHTVRLLDSNNPPTQLDFEILEEELSDIIADVHDLAKFSRLNYTGFQKIIKKHDKKTGFILKPVFQVRLDSKPFFKENYDELVVKISQLYDIARTSGRPIKGDSSAGGKQQNFVRQTTKYWVHPDNITELKLIILKHLPVLVFNTNKEFEREDSAITSIYFDNENLDLYYGRLRKDEGAEAHRLRWYGGMSTDTIFVERKTHREDWTGEKSVKARFALKERHVNDFLKGKYTVDQVFAKMRKEGKKPMNEIENLEALASEIQYVMLKKKLRPVVRSFYNRTAFQLPGDARVRISLDTELTMVREDNFDGVDRTHKNWRRTDIGVDWPFKQLDDKDICRFPYAVLEVKLQTQLGQEPPEWVRELVGSHLVEPVPKFSKFIHGVATLLNDKVDSIPFWLPQMDVDIRKPPLPTNIEITRPGRSDNEDNDFDEDDEDDAALVAAMTNAPGNSLDIEESVGYGATSAPTSNTNHVVESANAAYYQRKIRNAENPISKKYYEIVAFFDHYFNGDQISKIPKGTTFDTQIRAPPGKTICVPVRVEPKVYFATERTYLSWLSISILLGGVSTTLLTYGSPTAMIGSIGFFITSLAVLIRTVMVYAKRVVNIRLKRAVDYEDKIGPGMVSVFLILSILFSFFCNLVAK
modifications: GST-HisX6 tag
notes: as for B1
B4: RPH1: yeast GST-HisX6 fusion protein on proteome chip (protein, UniProt P39956 1-796, looked up)
DNA damage-responsive …: MTKLIAPSEIVGGVPVFKPTYEQFEDFYAYCKAINKYGMKSGVVKVIPPKEWKDKLDLPYSAETLQKIKIKSPIQQHISGNKGLFMVQNVEKNKTYNIIQWKDLSKDYVPPEDPKARRNSRKGSVSKSTKLKLKNFESSFNIDDFEQFRTEYTIDLSDFQNTERLKFLEEYYWKTLNFTTPMYGADTPGSIFPEGLNVWNVAKLPNILDHMETKVPGVNDSYLYAGLWKASFSWHLEDQDLYSINYIHFGAPKQWYSIPQEDRFKFYKFMQEQFPEEAKNCPEFLRHKMFLASPKLLQENGIRCNEIVHHEGEFMITYPYGYHAGFNYGYNLAESVNFALEEWLPIGKKAGKCHCISDSVEIDVKKLAKSWRDNNKESKGTPPLNQLPNPAMPLLHRPTLKEMESSSLRSTSPDVGHFSNFKSKSSGVSSPLLSRMKDYSNIVEPTLEDPTLKLKRISSFQEQPLNKLLKRETSQTAMLTDHEDNIVAMSLTSMANSAASSPRLPLSRLNSSNELSNAQPLLDMTNNTLAFPRPNGPSGLNPLLYISNKNISGISHSAPHSPVNPNISLIKRVKSPNIVTLNISRESSRSPIALNYEARQQHSQQHSFSTPSTVSNLSTSVLGPLSDTNDIKTPHPERPNHKTANRILKKESPVETSKSNLILSKVASTRQEDSFTSRNDDLDKEQGSSPLNSKFAPEEIVLSGKNKIYICKECQRKFSSGHHLTRHKKSVHSGEKPHSCPKCGKRFKRRDHVLQHLNKKIPCISNETTVDAPIMNPTVQPQDGKAAINQQSTPLN
modifications: GST-His6 tag
notes: as for B1
B5: PEX4: yeast GST-HisX6 fusion protein on proteome chip (protein, UniProt P29340 1-183, looked up)
Ubiquitin-conjugating enzyme …: MPNFWILENRRSYTSDTCMSRIVKEYKVILKTLASDDPIANPYRGIIESLNPIDETDLSKWEAIISGPSDTPYENHQFRILIEVPSSYPMNPPKISFMQNNILHCNVKSATGEICLNILKPEEWTPVWDLLHCVHAVWRLLREPVCDSPLDVDIGNIIRCGDMSAYQGIVKYFLAERERINNH
modifications: GST-His6 tag
notes: as for B1
B6: MPS1: yeast GST-HisX6 fusion protein on proteome chip (protein, UniProt P54199 1-764, looked up)
Serine/threonine-protein …: MSTNSFHDYVDLKSRTNTRQFSDDEEFTTPPKLSNFGSALLSHTEKTSASEILSSHNNDKIANRLEEMDRSSSRSHPPPSMGNLTSGHTSTSSHSTLFGRYLRNNHQTSMTTMNTSDIEINVGNSLDKSFERIRNLRQNMKEDITAKYAERRSKRFLISNRTTKLGPAKRAMTLTNIFDEDVPNSPNQPINARETVELPLEDSHQTNFKETKRNTDYDSIDFGDLNPIQYIKKHNLPTSDLPLISQIYFDKQREENRQAALRKHSSRELLYKSRSSSSSLSSNNLLANKDNSITSNNGSQPRRKVSTGSSSSKSSIEIRRALKENIDTSNNSNFNSPIHKIYKGISRNKDSDSEKREVLRNISINANHADNLLQQENKRLKRSLDDAITNENINSKNLEVFYHRPAPKPPVTKKVEIVEPAKSASLSNNRNIITVNDSQYEKIELLGRGGSSRVYKVKGSGNRVYALKRVSFDAFDDSSIDGFKGEIELLEKLKDQKRVIQLLDYEMGDGLLYLIMECGDHDLSQILNQRSGMPLDFNFVRFYTKEMLLCIKVVHDAGIVHSDLKPANFVLVKGILKIIDFGIANAVPEHTVNIYRETQIGTPNYMAPEALVAMNYTQNSENQHEGNKWKVGRPSDMWSCGCIIYQMIYGKPPYGSFQGQNRLLAIMNPDVKIPFPEHTSNNEKIPKSAIELMKACLYRNPDKRWTVDKVLSSTFLQPFMISGSIMEDLIRNAVRYGSEKPHISQDDLNDVVDTVLRKFADYKI
modifications: GST-HisX6 tag
notes: as for B1
B7: FRM2: yeast GST-HisX6 fusion protein on proteome chip (protein, UniProt P37261 1-193, looked up)
nitroreductase FRM2: MSPTGNYLNAITNRRTIYNLKPELPQGVGLDDVKRTVHVILKNTPTAFNSQVNRAVIIVGDTHKRIWDAVASAMPTAEAKKRPESCRDEAYGSVIFFTDEGPTEKLQRDFPALAAAFPTCAAHTTGAVQIQSWTALELLGLGANLQHYNDYVKSALPQDVPIAWTVQSQLVFGVPTALPEEKTFINNVINVYH
modifications: GST-His6 fusion tag
notes: as for B1
B8: RGD1: yeast GST-HisX6 fusion protein on proteome chip (protein, UniProt P38339 1-666, looked up)
RHO GTPase-activating protein …: MEETAKKPASATVSAKSSHDGGTDDLAHLFSTPEIKKVLNSDVAINALLSRLKQSLLTCEEFMKFIRKKYAFEEEHVQELSKQYKHFFNIQGSTNSSLKKMIHEVLGFDGKMAQVKQSYITALQKMYSEISSLLLTMTKLRKSVKENSKRLEKDVSDAIHSAEKAQSRYNSLCQDWDKLRMTDPTKTKLTLRGSKTTKEQEEELLRKIDNADLEYKQKVDHSNSLRNTFITKERPRIVQELKDLILEIDTAMTIQLQKYTIWTENLVLNTGVTISPLDSTKSMKSFAGSVSNERDLYSFLNKYNQTGKHSLLINKNLIPVSYKKHPSMNHGQKNKSPPKFAVDPSRNSIPKRMISTHNESPFLSSSSNTAAVPNANLNSATPSLNTNKQLPPTMASSISSTSNAAGAMSPSSSIVTSDTTSSITKTLDPGNNSPQIPEELINSLDSDRPISHIQTNNNMPPGVQKNFKTFGVPLESLIEFEQDMVPAIVRQCIYVIDKFGLDQEGIYRKSANVLDVSKLKEEIDKDPANISMILPSKPHSDSDIYLVGSLLKTFFASLPDSVLPKALSSEIKVCLQIEDPTTRKNFMHGLIYNLPDAQYWTLRALVFHLKRVLAHEAQNRMNLRALCIIWGPTIAPANPDDANDVNFQIMAMEVLLEVSDQAFEPE
modifications: GST-His6 tag
notes: as for B1

The molecules below were run on phosphatidylcholine (PC) liposomes (assay: Yeast proteome chip probed with PC liposomes). Details: liposome binding signal on yeast proteome chip, Cy3-streptavidin detection.
Method in brief: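 Sonicated liposomes in TBS, of phosphatidylcholine with 1% (w/w) biotin-DHPE plus 5% (w/w) of the named phosphoinositide (PC-only liposomes lacking it), were incubated on blocked chips of GST-RGS-His6-tagged yeast ORF proteins for 1 h at RT. Bound liposomes were detected with Cy3- or Cy5-streptavidin after PBS washes.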

| Molecule | PC |
| --- | --- |
| B1 | 58.70 |
| B2 | 83.93 |
| B3 | 66.03 |
| B4 | 56.93 |
| B5 | 69.85 |
| B6 | 4374.59 |
| B7 | 63.39 |
| B8 | 54.59 |

What follows are molecules tested on PI(3,4,5)P3 liposomes (assay: Yeast proteome chip probed with PI(3,4,5)P3 liposomes). Details: liposome binding signal on yeast proteome chip, Cy3-streptavidin detection.

| Molecule | PI(3, 4, 5)P3 |
| --- | --- |
| B1 | 15.97 |
| B2 | 68.29 |
| B3 | 25.31 |
| B4 | 9.90 |
| B5 | 21.49 |
| B6 | 1864.12 |
| B7 | 16.88 |
| B8 | 19.35 |

Each molecule was assayed on PI(3,4)P2 liposomes (assay: Yeast proteome chip probed with PI(3,4)P2 liposomes). Details: liposome binding signal on yeast proteome chip, Cy3-streptavidin detection.

| Molecule | PI(3, 4)P2 |
| --- | --- |
| B1 | 56.51 |
| B2 | 62.48 |
| B3 | 30.45 |
| B4 | 90.73 |
| B5 | 8.63 |
| B6 | 4216.40 |
| B7 | 59.34 |
| B8 | 54.31 |

These molecules were tested on PI(3)P liposomes (assay: Yeast proteome chip probed with PI(3)P liposomes). Details: liposome binding signal on yeast proteome chip, Cy3-streptavidin detection.

| Molecule | PI(3)P |
| --- | --- |
| B1 | 39.50 |
| B2 | 60.50 |
| B3 | 8.50 |
| B4 | 6.00 |
| B5 | 1.75 |
| B6 | 310.00 |
| B7 | 3.50 |
| B8 | 6.00 |

The molecules below were run on PI(4,5)P2 liposomes (assay: Yeast proteome chip probed with PI(4,5)P2 liposomes). Details: liposome binding signal on yeast proteome chip, Cy3-streptavidin detection.

| Molecule | PI(4, 5)P2 |
| --- | --- |
| B1 | 103.65 |
| B2 | 85.79 |
| B3 | 26.78 |
| B4 | 18.73 |
| B5 | 28.31 |
| B6 | 1084.79 |
| B7 | 75.34 |
| B8 | 55.31 |

The molecules below were run on PI(4)P liposomes (assay: Yeast proteome chip probed with PI(4)P liposomes). Details: liposome binding signal on yeast proteome chip, Cy3-streptavidin detection.

| Molecule | PI(4)P |
| --- | --- |
| B1 | 159.82 |
| B2 | 51.39 |
| B3 | 99.07 |
| B4 | 66.19 |
| B5 | 57.48 |
| B6 | 6148.60 |
| B7 | 12.63 |
| B8 | 127.60 |
